The values that follow come from the Human Domainome abundance scans (Beltran et al. 2025).

B1: Myocardin, residues 363 to 406; numbered along this chain, Q8IZQ8 (parent)
chain: KPGPLPPNLDDLKVSELRQQLRIRGLPVSGTKTALMDRLRPFQD

± gives the uncertainty stated by the source.

Variants of B1 are the subject of the series. The experiment in a line: abundance fitness (aPCA) (normalised: wild type 0, dead -1); higher = more abundant; growth selection in yeast, the domain comes from the species named. Particulars: Homo sapiens.
In the case of KPGPLPPNLDDLKVSELRQQLRIRGLPVSGTKSALMDRLRPFQD [T33S], the abundance fitness was -0.071 ± 0.095. To KPGPLPPNLDDLKVSELRQQLRIRGLPVSGTKMALMDRLRPFQD [T33M] belongs -0.402 ± 0.14; to KPGPLPPNLDDLKVSELRQQLRIRGLPVSGTKEALMDRLRPFQD [T33E], 0.292 ± 0.078; to KPGPLPPNLDDLKVSELRQQLRIEGLPVSGTKTALMDRLRPFQD [R24E], -0.56 ± 0.14. To KPGPLPPNLDDLKVSELRQQLRIQGLPVSGTKTALMDRLRPFQD [R24Q] belongs -0.73 ± 0.2.

For KPGPLPPNLDDLKVSELRQQLRIWGLPVSGTKTALMDRLRPFQD [R24W], the abundance fitness is -0.732 ± 0.14. The value for KPGPLPPNLDDLKVSELRQQLRIRGLPVSGTKTAMMDRLRPFQD [L35M] was 0.064 ± 0.093.

Take KPGPLPPNLDDLKVSELRQQLRIRGLPVSYTKTALMDRLRPFQD [G30Y]: the abundance fitness is -0.951 ± 0.14. The value for KPGKLPPNLDDLKVSELRQQLRIRGLPVSGTKTALMDRLRPFQD [P4K] was 0.371 ± 0.079. The value for KPGPYPPNLDDLKVSELRQQLRIRGLPVSGTKTALMDRLRPFQD [L5Y] was -0.204 ± 0.18; that for KPGPLPPNLDDLKVSELRQQVRIRGLPVSGTKTALMDRLRPFQD [L21V] was -0.432 ± 0.1; that for KPGPLPPNLDDLKVSELRQQWRIRGLPVSGTKTALMDRLRPFQD [L21W] was -1.02 ± 0.13. For the variant KPGPLPPNLDDLKVSELRQQERIRGLPVSGTKTALMDRLRPFQD [L21E], the abundance fitness is -0.42 ± 0.096. For KPGPLPPNLDDLKVSELRQQLRIRGTPVSGTKTALMDRLRPFQD [L26T], the abundance fitness is -0.805 ± 0.15.

As for KIGPLPPNLDDLKVSELRQQLRIRGLPVSGTKTALMDRLRPFQD [P2I], the abundance fitness worked out at 0.466 ± 0.087. To KDGPLPPNLDDLKVSELRQQLRIRGLPVSGTKTALMDRLRPFQD [P2D] belongs 0.407 ± 0.18; to KPGPLPPNLDDLKVSELRQQLRIRGLPVSGLKTALMDRLRPFQD [T31L], -0.344 ± 0.092; to KPGPLPPNLDDLKVSELRQQLRIRGLPVSGQKTALMDRLRPFQD [T31Q], -0.273 ± 0.12. The value for KPGPLPPNLDDLKVSELRQQLRIRGLPVSGMKTALMDRLRPFQD [T31M] was -0.62 ± 0.22. As for KPGPLPPNLDDLKVSELRQQLRIRGLPVSGTKTALMDRLRPMQD [F42M], the abundance fitness was -0.242 ± 0.1. As for KPGPLPPNLDDLKVSELRQQLRIRGLPVYGTKTALMDRLRPFQD [S29Y], the abundance fitness was -0.095 ± 0.29. The value for KPGPLPPNLDDLKVSELRQQLRIRGLPVSGTKTALMDRLRPFMD [Q43M] was -0.031 ± 0.07; that for KPGPLPENLDDLKVSELRQQLRIRGLPVSGTKTALMDRLRPFQD [P7E] was 0.253 ± 0.071; that for KPGPLPNNLDDLKVSELRQQLRIRGLPVSGTKTALMDRLRPFQD [P7N] was 0.346 ± 0.14. To KPGPLPPNLDDLKVSELRDQLRIRGLPVSGTKTALMDRLRPFQD [Q19D] belongs -0.05 ± 0.14; to KPGPLPPNLDDLKVSELRMQLRIRGLPVSGTKTALMDRLRPFQD [Q19M], -0.206 ± 0.18; to KPGPLDPNLDDLKVSELRQQLRIRGLPVSGTKTALMDRLRPFQD [P6D], -0.195 ± 0.12. Regarding KPGPLPPNLDDWKVSELRQQLRIRGLPVSGTKTALMDRLRPFQD [L12W], the abundance fitness is -0.315 ± 0.085. In the case of KPGPLPPNLDDQKVSELRQQLRIRGLPVSGTKTALMDRLRPFQD [L12Q], the abundance fitness was -0.506 ± 0.34. With KPGPLPPNLDDLKVSELRQQLRIRGLPVSGTKTALMDPLRPFQD [R38P], the abundance fitness is -0.219 ± 0.13.

Turning to KPGPLPPNLDDLKVSELRQQLRIRGLPVSGTKTALMDSLRPFQD [R38S], the abundance fitness is -0.479 ± 0.082. As to KPGPLPPNLDDLKVSELRQQLRIRGLPVSGTKTALMDRRRPFQD [L39R], the abundance fitness is -0.776 ± 0.081. On to KPGPLPPNLDDLKVSELRQQLRIRGLPVSGTKTALMDRPRPFQD [L39P], for which the abundance fitness is -0.373 ± 0.084. To KPGPLPPNLDDLKVSELRQQLRIRGLPVSGTKTALMDRLRPFQW [D44W] belongs -0.218 ± 0.34; to KPGPLPPNLDDLKWSELRQQLRIRGLPVSGTKTALMDRLRPFQD [V14W], -1.02 ± 0.13.

As to KPGPLPPNLDDLKVSELRQQLRIRGLCVSGTKTALMDRLRPFQD [P27C], the abundance fitness was -0.216 ± 0.1. Turning to KPGPLPPNLDDLKVSELRQQLRIRGLSVSGTKTALMDRLRPFQD [P27S], the abundance fitness is -0.043 ± 0.076. The value for KPGPLPPNLDDLKVSELRQQLRIRGLPVSGTKTALMYRLRPFQD [D37Y] was -0.271 ± 0.22.

As for KPGPLPPNLDDLKVSELRQQLRIRGLPVSGTKTALMSRLRPFQD [D37S], the abundance fitness is -0.892 ± 0.11. To KPGPLPPNLDDLKVSELRQQLRIRGLPVSGTKTDLMDRLRPFQD [A34D] belongs 0.137 ± 0.077; to KPGPLPPNLDDLKVSELRQQLRIRGLPVSGTKTSLMDRLRPFQD [A34S], -0.223 ± 0.085; to KPGPLPPNLDDLKVSKLRQQLRIRGLPVSGTKTALMDRLRPFQD [E16K], -0.842 ± 0.28.

On to KPGPLPPNLDWLKVSELRQQLRIRGLPVSGTKTALMDRLRPFQD [D11W], for which the abundance fitness was -0.441 ± 0.093. For KPGPLPPNLDDLKVSELRQQLRIRGLPVSGTQTALMDRLRPFQD [K32Q], the abundance fitness is -0.58 ± 0.11.

Take KPGPLPPNLDDLKVSELRQQLRIRGLPVSGTPTALMDRLRPFQD [K32P]: the abundance fitness was -0.583 ± 0.071. To KPGPLPPNLPDLKVSELRQQLRIRGLPVSGTKTALMDRLRPFQD [D10P] belongs -0.552 ± 0.16; to KPGPLPPNCDDLKVSELRQQLRIRGLPVSGTKTALMDRLRPFQD [L9C], -0.371 ± 0.19; to KPGPLPPNTDDLKVSELRQQLRIRGLPVSGTKTALMDRLRPFQD [L9T], -0.731 ± 0.12.

For the variant KPGPLPPNLDDLKVSELRQQLRIRGLPVSGTKTALEDRLRPFQD [M36E], the abundance fitness was -0.463 ± 0.12. The value for KPGPLPPNLDDLKVSELRQQLRIRGLPVSGTKTALVDRLRPFQD [M36V] was -0.183 ± 0.075; that for KPGPLPPNLDDLKVSELRQQLRIRGLPVSGTKTALLDRLRPFQD [M36L] was -0.449 ± 0.098. The value for KPYPLPPNLDDLKVSELRQQLRIRGLPVSGTKTALMDRLRPFQD [G3Y] was -0.067 ± 0.13; that for KPCPLPPNLDDLKVSELRQQLRIRGLPVSGTKTALMDRLRPFQD [G3C] was -0.792 ± 0.23; that for KPGPLPPNLDDLKVRELRQQLRIRGLPVSGTKTALMDRLRPFQD [S15R] was -0.22 ± 0.065. The value for KPGPLPPNLDDLKVSENRQQLRIRGLPVSGTKTALMDRLRPFQD [L17N] was -1 ± 0.35; that for KPGPLPPGLDDLKVSELRQQLRIRGLPVSGTKTALMDRLRPFQD [N8G] was -0.623 ± 0.064; that for KPGPLPPNLDDLKVSELMQQLRIRGLPVSGTKTALMDRLRPFQD [R18M] was -0.503 ± 0.11. Turning to KPGPLPPNLDDLKVSELPQQLRIRGLPVSGTKTALMDRLRPFQD [R18P], the abundance fitness was -0.727 ± 0.15.
